Test results reported in the DeepSol protein solubility set.

Assay: soluble on expression in E. coli; label from the status in PepcDB or PDB records

## MKLTTLGSWGAYPYQDAGTTSYLVTGHDGFQLLMDAGSRALNELEKEISPLDLDAVIISHYHPDHVADLGVLRHYFQLYPKHLWQPKVLPIYGHDEDRNEFAKLSIPDVSEGRAYDVTGVEQIGSFDITFLKTVHPVVCYAFRIVERATGQVLVFTGDSGYFEGLADFAKEADLFLADVYLYEGNENHMAHLTSKEAGLMASQAGVKKLVLTHMPPVPPDGINSKNHLEVLRQETQAYAGNIPVDLALPHKSWNLGSLS
  soluble on expression in E. coli: not soluble

## MILREFCAENLTDLTRLDKAIISRVELCDNLAVGGTTPSYGVIKEANQYLHEKGISVAVMIRPRGGNFVYNDLELRIMEEDILRAVELESDALVLGILTSNNHIDTEAIEQLLPATQGLPLVFHMAFDVIPKSDQKKSIDQLVALGFTRILLHGSSNGEPIIENIKHIKALVEYANNRIEIMVGGGVTAENYQYICQETGVKQAHGTRITQMAGDPLEHHHHHH
  soluble on expression in E. coli: soluble

## MNEDNSPSSNEGKKEKAEGPSRKSFFERLGQLFQGEPKDRQELVDVIRDSEVNDLIDHDTRDMLEGVMEISEMRVRDIMIPRSQMVTVERTDDLDTLIALITDAQHSRYPVISEDKDHVEGILLAKDLLKYLGSGSNPFDIEEVIRPAVVVPESKRVDRLLKEFREERYHMAIVVDEFGGVSGLVTIEDILEEIVGDIEDEFDESEETDIRKLSKHTFAVRALTTIEEFNETFGTNFSDEEVDTVGGMVMTAFGHLPSRGELVEIEGYNFKVTAADNRRVIQLQVTIPDEETLVEATQE
  soluble on expression in E. coli: not soluble

## MTNIFTPIEEALEAYKNGEFLIVMDDEDRENEGDLIMAAELITQEKMAFLVRYSSGYVCVPLSEERANQLELPPMLANRSDRHGTAYTITCDFAEGTTTGISAHDRALTTRSLANPNSKPQDFIKPGHILPLRAVPGLLKKRRGHTEAAVQLSTLAGLQPAGVICELVRDEDGLMMRLDDCIQFGKKHGIKIININQLVEYISK
  soluble on expression in E. coli: soluble

## MGSDKIHHHHHHMDKFLYIAMSGAKQGMNALAVSANNLANANTDGFKADMVQARSMQAFGEGLPTRVFSMMESPGSNFNGGPIKTTGRDLDIAVKGDGWLAVQAADGSEGYTRAGSLKIDSTGMLLNSSNRPVMGASGPIVLPIPVEKIEISANGIISVRPQGATAEVIEEVARIKLVNPGNENLMRGEDGLFRLIAGGNAPNDPGVQVESGAVEGSNVNSVHEMVAMIDIQRQYEMQVKMMKNAEEIDRASTSLMRIS
  soluble on expression in E. coli: not soluble

## MRNTIEIEDPNHRPFTISSNYAYYIGYLDLRPDGMGYHKRGEMNGLWYPPLRVLKNIYVSDGKTVFKPAHAEIGYSEARFEFYGTTLQISFQDDNDFEIAVKNASNDVRKLIVELHPETVWYTVNDTRIKVNRRSAIIYSHMFPETRLRIAASSEFSIENGRLSLLADGKSSLRISSACLHSHRPPIRVNRYRDIDRFSLLRGGGQIGENFRTAKDNLIRLSLINQETGYGLTAGHPDFPWYFGIDTLLSFNGILDAGLFELAFGSLNILARYSKSGKIPHEILTSGKVYNDGDLEETALFPYAVFKYAEWAGYTEEMRHLATIASESFNYLFAHGFQGRGIMEDPKAGEGVDIDTISFTIMSLMELQKVMDMDQEAFGGIADAVKPTEAIDALRKTVQSFWMSERRTFANRIVDGVPVDLGFWTSIIPFYTGIAGIDQYRKFVSDGGGLSRISSSSGIVVDASGNSMPVNTGMFVLGSIRYGDAENAARYFKMLDRSLGLFSPGAYPEISNNPQGCYLQAWSAAIYIESIVEGFFGIHSEGGRLISKPFNSSLMPGGATLKNVRFRNKYYDFIL
  soluble on expression in E. coli: not soluble

## MAHHHHHHMRLASPFSRAAWQLQETHNLSPLLRRRACAAPVAATSPSAFCTARRCLSQQASHWLNKLRYGADDAPTMGSWDSAYEDDAMDTRKLYCKALVHASGGSRLARDWIAGCAALTSPDPSLIYTALQHAATEADVEELREHILGRLLAQESPRRGGRSGGSCDNEVRTSFGMYEESEREVVVPGTGNVAVKRAVAPNCAGQSSIHERDGKDGASEATSPPITSEGIRDAEHYLLQRSREVRCFMYDAMTASLFHSNNDLRTVEAARRHTFWIGLTQFGLSFDELTALWRLVEAELLLKKEKIKVLGQPWGE
  soluble on expression in E. coli: soluble

## MKITLIIPTYNAGSLWPNVLDAIKQQTIYPDKLIVIDSGSKDETVPLASDLKNISIFNIDSKDFNHGGTRNLAVAKTLDADVIIFLTQDAILADSDAIKNLVYYFSDPLIAAVCGRQLPHKDANPLAVHARNFNYSSKSIVKSKADIEKLGIKTVFMSNSFAAYRRSVFEELSGFPEHTILAEDMFMAAKMIQAGYKVAYCAEAVVRHSHNYTPREEFQRYFDTGVFHACSPWIQRDFGGAGGEGFRFVKSEIQFLLKNAPFWIPRALLTTFAKFLGYKLGKHWQSLPLSTCRYFSMYKSYWNNIQYSSSKEIKLEHHHHHH
  soluble on expression in E. coli: soluble

## MAWLRFFSRTLKSLPQISSSSPNPNPNFRTSPFSTSFLITKTPDKLKKKRKKPESARTKSIQHESTKLPHLESLVSRDAHFRFLIRSKEFISKQPERILRLDDAGKLYRELGFPRGRKVTKFIPKHPLIFQTYRHSDGKIWLGFTEFMEDLLDEEKGLMESMELDRVNCVRKLLMMTKDKRILLSKIHHTRLLFGIPEDFRDRVAKYPDYFRVVTGGDGNRVLELVNWDTNLAHGKELELEEKDTRKLNLLNTFPLVSPYSDGWKLDVWSLEAEKYRVGIVHEFLNLTLEKRASIHHIVEFKDEFSLTRQTYQMLKKQSMSFYLAGTEMNWTVFLKDAYDENGVLVSKDPQVVFNEKLYKYADMQQMEQVG
  soluble on expression in E. coli: soluble

## MGSDKIHHHHHHDDHQGIIPLPPVENAFQEKYPDAKNPVFEIEGNYYVVDFNNGGSETTAWFTDQGIWMMEKIDISFAQLPAAVSTAFKQSFYSNWTVDDTYAINRLNMGIVYKIEAEQSNSEVDLYYSQYGNLIKAVDDEINNDAPIVIPKEVSNLMEITFANAELLDIQQNSLGYELDMIDNQIYKVAQLNKDYRWQSTTWAMSEQEVPQIVMQGFESSAYASDKVQSIYTLLNANGTFYLFKVSHNGQDKTITFDVFGNIV
  soluble on expression in E. coli: not soluble

## VVKQDLSDNQYIQKKPNEITSNELLLPLPNDKLLGDPKAPILMIEYASLTCYHCSLFHRNVFPKIKEKYIDTGKMLYIFRHFPLDYRGLKAAMLSHCYEKQEDYFNFNKAVFNSIDSWNYYNLSDLTLLQRIAALSNLKQDAFNQCINDKKIMDKIVNDKSLAINKLGITAVPIFFIKLNDDKSYIEHNKVKHGGYKELKYFTNVIDKLYGKAIVKLEHHHHHHHH
  soluble on expression in E. coli: soluble

## MKVLIDTNVILDVLLNRASFVQDAIAVLELTCGNIQAYVSASAITDIYYIAYKELRDKIRVKNLIKTLLQIITVAGISDKEIMSAIDSDWADFEDSLQNAVAESHDCSMIITRNISDFNGSNLQIISPKDFIVQFTHLEHHHHHH
  soluble on expression in E. coli: not soluble

## MLKINYPIKGACQCGQVTYQLLAAPLMVAACHCRECQKLSTSAFSITAVVNATDVVFSGEMSDWSRLADNGNTNGAKFCPCCGNRIYHFNPNFPDKIKLKPSTLEDTRVIQPTMHIWTSEKQAWFKLPLDLPSHEKQPF
  soluble on expression in E. coli: not soluble

## MILINKRAEKQDYQTILAIWEKSVIVTHDFLTAEDRQFYKEQIPLFLDNVELFLWFAGEEVIGFSGTSERELDMLFLDPVATGNGYGSQILGWLIENKRINLVDVNEQNENATRFYLKHGFVVSSRSDLDGFGKPYPILQLQLK
  soluble on expression in E. coli: not soluble

## MKFPGQRKSKHYFPVKTRDPLLEQLTQQPQPFATYISGIDQTLVDIEAKVEDELLSRYGLPKGNSTLINDEQAHRLYTELKIHGLISDEFAGGTIGNTVHNYSILADDRSVLFGVMSQNIEVGSYAYRYLCNTSSKVDLNYLQPVDGPIGRCFTLISDCGERTFAISKGAMDKLTPEFIDKDVVQGSSALVLTAYLMRASGGDRITDAAMCAIEYAKAADVPVVLTLGTRFLIEEDPLWWQNFIKEHVTILAMNEDEGEALTGSRDPLLASEKALEWCDMVLTTAGPIGLYTAGYTEDSEKRETTHTLLPGAIPEFNRYEFSRPKLKSDCETPIKVYAHISPYMGGPEKIGNTNGAGDGALSALLHDLAANTFHKTNVPGSSKHKRDGLCYSSFSQICKYANRVAYEVLAQHSPRLSRGLPEREDSLEESYWER
  soluble on expression in E. coli: soluble

## MGSDKIHHHHHHMLERRDKEITDLKRRVANMVVVGKISHVDHKNARYRVKTGNLVSDWIPDTQARAGKTRSYEGRDVGEQVVVVSSSGDLSQGVIVGSIHTDANQAADKGNLHKTLYPDGTTIEYDDEQNSYALHLTSGGKFSLTISDGVSIKGDGKKLELQAAEGIKIISQGDLSLSAEKNIALKAGGSVSLHSDDGIALHSSEGVSIHSSDLKHNGTNIGNSHVHGGVSPGGSMTGGPN
  soluble on expression in E. coli: not soluble

## VPKLIDHDRRQQEIAEAVWRVIQREGIGAVSVRDVAAEAGISSGSLRHVFASKTELLAYSMRLVATRVRERAQAHASITDPWQRALAVLDEVLPLDDRRRCEMEVNLALVAESPAHPLLKDIALDAQRQLRGACAAILTGLAQWGLIAPDIDVDAEAMRLHALVDGAAMHVLLGDTDTPDTARRMIAEHLRTLL
  soluble on expression in E. coli: not soluble

## MVVNVFISAVTTDTLSRKEAVAWVNNLLKSHFTKVEEMASGAAYCQLTHLLFNAINLKKVKFNPRSEPDVLNNWKVLTTTWKDLGIDKPVDVEKMKKAKFQDNMEFLQWFYKFYNANLTTEPEEYDAVGARFGEDLPALKGSTGSRPVAAPARPVAAAPPKPRPAAPAVAAPAVKASVPPTVRNGTRPAPATSAGTRRADPSASEELLKQEIEKHKAASDEWETTAKEMETEREYYYSILQRVESLANEAEESGSSTVDVAALKTILYAGNEDTEQVDEIENEHLVESLQANLDDTETF
  soluble on expression in E. coli: soluble

## MRYFALTDLTKPTAKFTTDAMELRQISNAYLNQAQAYLQKGLKQLKKDYKNAILYTPKTEYKRFLKWKQTFLQDLNQTQKRFFIVRAQHFSYVLLFNLLDEQVEAVIATFNNFLDEHRLEAQSKQFDLDTAVNELHDYFDQLQKNTAYSEDLPTHLTQKTEQLINARNTQLTNLLNKIATTKPPLNKQQRLLASFRNYHEHLFLKNEVKKVTWLNEPRAKKESVTPDEEH
  soluble on expression in E. coli: soluble

## CPECDEPLHYIRDAVSEKLEYIPAHFVVNRYVRPQYSCPCCQKVFSGEMPAHILPKSAVEPSVIAQVIINKYGDHLPLYRQQQVFARSDVGLPVSSMADMVGAAGAALSPLAALLHRELINRPVVHADETTLKILNTKKGGKSCSGYLWAYVSGERTGPSVVCFDCRTGRSHEYPENWLQGWGGTLVVDGHKAYRTLANKV
  soluble on expression in E. coli: not soluble

## MDGHYEVSKSILINRSSPDVFAYVSHIKNQEHYSVWAKRDTNSIKTYRGRDGVVGFTATWKSEMKKVGQGEQEIKKIIPNKRIDLELRFFKPFEATDHVFMETIAQDEEETKVVWGFDGEMAYPVNFFLLFVDMEDVLGGDLETGLVNLKTILESKLEHHHHHH
  soluble on expression in E. coli: soluble

## MGSDKIHHHHHHMEPHWDDMKVFLAVAREESLSGAGRQLKLDPATVGRRIARLESAYDTPLFAKSPQGYTLTAAGERLLSHGEQAEAAMRSASEALAGTTEGLTGQIRIGAPDGSANYLLPQVCAQISDENPELDIQILALPRIINLSRREADMAVTVSAPTAGHLLVQKITDYKLHMVASRRYLRGHPPIETLADLRGHRMIGYIPDMIFDRELDYLNDIGIERVALASNSVSVQLRQAGHGSGICVAHDFTLPFHGNLRRILTDQVSLTRSFYLVRHQGDQRSERLNRFAEALTRGIRDEVARLEADAMS
  soluble on expression in E. coli: not soluble

## MDPKFQRVALSDGHFIPVLGFGTYAPEEVPKSKAMEATKIAIDAGFRHIDSAYFYKNEKEVGLAIRSKIADGTVKREDIFYTSKLWCTFHRPELVRPSLEDSLKNLQLDYVDLYIIHFPTALKPGVEIIPTDEHGKAIFDTVDICATWEAMEKCKDAGLAKSIGVSNFNRRQLEMILNKPGLKYKPVCNQVECHPYLNQGKLLEFCKSKGIVLVAYSALGSHREPEWVDQSAPVLLEDPLIGALAKKHQQTPALIALRYQLQRGIVVLAKSFTEKRIKENIQVFEFQLPSEDMKVIDSLNRNFRYVTADFAIGHPNYPFSDEY
  soluble on expression in E. coli: soluble
